Laboratory results published in publication PMC7847995, “Site-directed mutagenesis identified the key active site residues of alcohol acyltransferase PpAAT1 responsible for aroma biosynthesis in peach fruits” (Horticulture Research, 2021).

Biological target: T1, PpAAT1 (Prunus persica, UniProt M5WU76)
T1 construct: gene AAT1; codon-optimised, C-terminal polyhistidine tag, pET-30a(+), expressed in E. coli, purified; HxxxD motif HAMCD at H165-D169
Assay: esterification assay
Type: biochemical
Settings: co-substrate acetyl-CoA; product decyl acetate

Row | Molecule | Kcat/Km
1 | CCCCCCCCCCO [decanol] | acetyl–CoA and four different alcohols (propanol, hexanol, benzyl alcohol, and decanol)

Same assay, conditions: co-substrate acetyl-CoA; product phenylmethyl acetate

Row | Molecule | Kcat/Km
2 | OCc1ccccc1 [benzyl alcohol] | acetyl–CoA and four different alcohols (propanol, hexanol, benzyl alcohol, and decanol)

Substrate: CCCCCCC(O)CCC(=O)SCCNC(=O)CCNC(=O)[C@H](O)C(C)(C)COP(=O)(O)OP(=O)(O)OC[C@H]1O[C@@H](n2cnc3c(N)ncnc32)[C@H](O)[C@@H]1OP(=O)(O)O
Assay: GC-MS of gamma-decalactone formation
Type: biochemical, Prunus persica
Settings: internal esterification to gamma-decalactone; ±SE, n = 3
Text: GC-MS of gamma-decalactone formation on PpAAT1

Row | Molecule | Km | kcat [s⁻¹] | kcat/Km [M⁻¹ s⁻¹]
3 | PpAAT1 (Prunus persica; K298F) (protein, codon-optimised, C-terminal polyhistidine tag, pET-30a(+), expressed in E. coli, purified; HxxxD motif HAMCD at H165-D169) MGSLCPLLFPVNRFEPELITPAKPTPIETKQLSDIDDQDGLRFHFPVIISYKNNPSMKGNDAVMVIREALSRALVYYYPLAGRLREGPNRKLMVECNGEGVLFIEANADVTLEQLGDRILPPCPVLEEFLSNPPGSDGILGCPLLLVQVTRLTCGGFIFGLRINHAMCDAVGLAKFLNAIGEMAQGADSLSVPPVWARELLNARDPPTVTRWHYEYDQLLDSQGSFIAAIDQSNMAQRSFYFGPQQIRALRKHLPPHLSTCSSFELITACVWRCRTLSLRLNPKDTVRISCAVNARGFSINDLCLPSGFYGNAFSIPTAVSTVELLCASPLGYGVELVRKSKAQMDKEYMQSLADFFVIRGRPPLPMGWNVFIVSDNRHTGFGEFDVGWGRPLFAGLARAFSMISFYVRDNNQEEEFGTLVPICLPSTSLERFEEELKKMTLEHVEEISK | 10.1014 (±1.4928) mM | 0.451 ± 0.0624 | 44.1 ± 7.9
4 | PpAAT1 (Prunus persica; A174S) (protein, codon-optimised, C-terminal polyhistidine tag, pET-30a(+), expressed in E. coli, purified; HxxxD motif HAMCD at H165-D169) MGSLCPLLFPVNRFEPELITPAKPTPIETKQLSDIDDQDGLRFHFPVIISYKNNPSMKGNDAVMVIREALSRALVYYYPLAGRLREGPNRKLMVECNGEGVLFIEANADVTLEQLGDRILPPCPVLEEFLSNPPGSDGILGCPLLLVQVTRLTCGGFIFGLRINHAMCDAVGLSKFLNAIGEMAQGADSLSVPPVWARELLNARDPPTVTRWHYEYDQLLDSQGSFIAAIDQSNMAQRSFYFGPQQIRALRKHLPPHLSTCSSFELITACVWRCRTLSLRLNPKDTVRISCAVNARGKSINDLCLPSGFYGNAFSIPTAVSTVELLCASPLGYGVELVRKSKAQMDKEYMQSLADFFVIRGRPPLPMGWNVFIVSDNRHTGFGEFDVGWGRPLFAGLARAFSMISFYVRDNNQEEEFGTLVPICLPSTSLERFEEELKKMTLEHVEEISK | 9.1599 (±1.0952) mM | 0.399 ± 0.048 | 43.6 ± 6.9
5 | PpAAT1 (Prunus persica; F264Y) (protein, codon-optimised, C-terminal polyhistidine tag, pET-30a(+), expressed in E. coli, purified; HxxxD motif HAMCD at H165-D169) MGSLCPLLFPVNRFEPELITPAKPTPIETKQLSDIDDQDGLRFHFPVIISYKNNPSMKGNDAVMVIREALSRALVYYYPLAGRLREGPNRKLMVECNGEGVLFIEANADVTLEQLGDRILPPCPVLEEFLSNPPGSDGILGCPLLLVQVTRLTCGGFIFGLRINHAMCDAVGLAKFLNAIGEMAQGADSLSVPPVWARELLNARDPPTVTRWHYEYDQLLDSQGSFIAAIDQSNMAQRSFYFGPQQIRALRKHLPPHLSTCSSYELITACVWRCRTLSLRLNPKDTVRISCAVNARGKSINDLCLPSGFYGNAFSIPTAVSTVELLCASPLGYGVELVRKSKAQMDKEYMQSLADFFVIRGRPPLPMGWNVFIVSDNRHTGFGEFDVGWGRPLFAGLARAFSMISFYVRDNNQEEEFGTLVPICLPSTSLERFEEELKKMTLEHVEEISK | 3.0241 (±0.5145) mM | 2.53 ± 0.287 | 836 ± 122
6 | PpAAT1 (Prunus persica; K342F) (protein, codon-optimised, C-terminal polyhistidine tag, pET-30a(+), expressed in E. coli, purified; HxxxD motif HAMCD at H165-D169) MGSLCPLLFPVNRFEPELITPAKPTPIETKQLSDIDDQDGLRFHFPVIISYKNNPSMKGNDAVMVIREALSRALVYYYPLAGRLREGPNRKLMVECNGEGVLFIEANADVTLEQLGDRILPPCPVLEEFLSNPPGSDGILGCPLLLVQVTRLTCGGFIFGLRINHAMCDAVGLAKFLNAIGEMAQGADSLSVPPVWARELLNARDPPTVTRWHYEYDQLLDSQGSFIAAIDQSNMAQRSFYFGPQQIRALRKHLPPHLSTCSSFELITACVWRCRTLSLRLNPKDTVRISCAVNARGKSINDLCLPSGFYGNAFSIPTAVSTVELLCASPLGYGVELVRKSFAQMDKEYMQSLADFFVIRGRPPLPMGWNVFIVSDNRHTGFGEFDVGWGRPLFAGLARAFSMISFYVRDNNQEEEFGTLVPICLPSTSLERFEEELKKMTLEHVEEISK | 5.0532 (±0.3364) mM | 1.32 ± 0.0927 | 262 ± 74.2
7 | PpAAT1 (Prunus persica; A170S) (protein, codon-optimised, C-terminal polyhistidine tag, pET-30a(+), expressed in E. coli, purified; HxxxD motif HAMCD at H165-D169) MGSLCPLLFPVNRFEPELITPAKPTPIETKQLSDIDDQDGLRFHFPVIISYKNNPSMKGNDAVMVIREALSRALVYYYPLAGRLREGPNRKLMVECNGEGVLFIEANADVTLEQLGDRILPPCPVLEEFLSNPPGSDGILGCPLLLVQVTRLTCGGFIFGLRINHAMCDSVGLAKFLNAIGEMAQGADSLSVPPVWARELLNARDPPTVTRWHYEYDQLLDSQGSFIAAIDQSNMAQRSFYFGPQQIRALRKHLPPHLSTCSSFELITACVWRCRTLSLRLNPKDTVRISCAVNARGKSINDLCLPSGFYGNAFSIPTAVSTVELLCASPLGYGVELVRKSKAQMDKEYMQSLADFFVIRGRPPLPMGWNVFIVSDNRHTGFGEFDVGWGRPLFAGLARAFSMISFYVRDNNQEEEFGTLVPICLPSTSLERFEEELKKMTLEHVEEISK | 4.5852 (±0.6923) mM | 1.28 ± 0.1 | 278 ± 19.4
8 | PpAAT1 (Prunus persica; S262A) (protein, codon-optimised, C-terminal polyhistidine tag, pET-30a(+), expressed in E. coli, purified; HxxxD motif HAMCD at H165-D169) MGSLCPLLFPVNRFEPELITPAKPTPIETKQLSDIDDQDGLRFHFPVIISYKNNPSMKGNDAVMVIREALSRALVYYYPLAGRLREGPNRKLMVECNGEGVLFIEANADVTLEQLGDRILPPCPVLEEFLSNPPGSDGILGCPLLLVQVTRLTCGGFIFGLRINHAMCDAVGLAKFLNAIGEMAQGADSLSVPPVWARELLNARDPPTVTRWHYEYDQLLDSQGSFIAAIDQSNMAQRSFYFGPQQIRALRKHLPPHLSTCASFELITACVWRCRTLSLRLNPKDTVRISCAVNARGKSINDLCLPSGFYGNAFSIPTAVSTVELLCASPLGYGVELVRKSKAQMDKEYMQSLADFFVIRGRPPLPMGWNVFIVSDNRHTGFGEFDVGWGRPLFAGLARAFSMISFYVRDNNQEEEFGTLVPICLPSTSLERFEEELKKMTLEHVEEISK | 2.9920 (±0.3836) mM | 2.36 ± 0.364 | 790 ± 190
9 | PpAAT1 (Prunus persica; F314Y) (protein, codon-optimised, C-terminal polyhistidine tag, pET-30a(+), expressed in E. coli, purified; HxxxD motif HAMCD at H165-D169) MGSLCPLLFPVNRFEPELITPAKPTPIETKQLSDIDDQDGLRFHFPVIISYKNNPSMKGNDAVMVIREALSRALVYYYPLAGRLREGPNRKLMVECNGEGVLFIEANADVTLEQLGDRILPPCPVLEEFLSNPPGSDGILGCPLLLVQVTRLTCGGFIFGLRINHAMCDAVGLAKFLNAIGEMAQGADSLSVPPVWARELLNARDPPTVTRWHYEYDQLLDSQGSFIAAIDQSNMAQRSFYFGPQQIRALRKHLPPHLSTCSSFELITACVWRCRTLSLRLNPKDTVRISCAVNARGKSINDLCLPSGFYGNAYSIPTAVSTVELLCASPLGYGVELVRKSKAQMDKEYMQSLADFFVIRGRPPLPMGWNVFIVSDNRHTGFGEFDVGWGRPLFAGLARAFSMISFYVRDNNQEEEFGTLVPICLPSTSLERFEEELKKMTLEHVEEISK | 4.2018 (±0.5997) mM | 1.11 ± 0.119 | 265 ± 31.1
10 | PpAAT1 (Prunus persica; H379V) (protein, codon-optimised, C-terminal polyhistidine tag, pET-30a(+), expressed in E. coli, purified; HxxxD motif HAMCD at H165-D169) MGSLCPLLFPVNRFEPELITPAKPTPIETKQLSDIDDQDGLRFHFPVIISYKNNPSMKGNDAVMVIREALSRALVYYYPLAGRLREGPNRKLMVECNGEGVLFIEANADVTLEQLGDRILPPCPVLEEFLSNPPGSDGILGCPLLLVQVTRLTCGGFIFGLRINHAMCDAVGLAKFLNAIGEMAQGADSLSVPPVWARELLNARDPPTVTRWHYEYDQLLDSQGSFIAAIDQSNMAQRSFYFGPQQIRALRKHLPPHLSTCSSFELITACVWRCRTLSLRLNPKDTVRISCAVNARGKSINDLCLPSGFYGNAFSIPTAVSTVELLCASPLGYGVELVRKSKAQMDKEYMQSLADFFVIRGRPPLPMGWNVFIVSDNRVTGFGEFDVGWGRPLFAGLARAFSMISFYVRDNNQEEEFGTLVPICLPSTSLERFEEELKKMTLEHVEEISK | 8.2152 (±0.9510) mM | 0.362 ± 0.0249 | 44.1 ± 3.6
11 | PpAAT1 (Prunus persica) (protein, codon-optimised, C-terminal polyhistidine tag, pET-30a(+), expressed in E. coli, purified; HxxxD motif HAMCD at H165-D169) MGSLCPLLFPVNRFEPELITPAKPTPIETKQLSDIDDQDGLRFHFPVIISYKNNPSMKGNDAVMVIREALSRALVYYYPLAGRLREGPNRKLMVECNGEGVLFIEANADVTLEQLGDRILPPCPVLEEFLSNPPGSDGILGCPLLLVQVTRLTCGGFIFGLRINHAMCDAVGLAKFLNAIGEMAQGADSLSVPPVWARELLNARDPPTVTRWHYEYDQLLDSQGSFIAAIDQSNMAQRSFYFGPQQIRALRKHLPPHLSTCSSFELITACVWRCRTLSLRLNPKDTVRISCAVNARGKSINDLCLPSGFYGNAFSIPTAVSTVELLCASPLGYGVELVRKSKAQMDKEYMQSLADFFVIRGRPPLPMGWNVFIVSDNRHTGFGEFDVGWGRPLFAGLARAFSMISFYVRDNNQEEEFGTLVPICLPSTSLERFEEELKKMTLEHVEEISK | 2.6187 (±0.2511) mM | 2.72 ± 0.146 | 1040 ± 91.6
12 | PpAAT1 (Prunus persica; R339V) (protein, codon-optimised, C-terminal polyhistidine tag, pET-30a(+), expressed in E. coli, purified; HxxxD motif HAMCD at H165-D169) MGSLCPLLFPVNRFEPELITPAKPTPIETKQLSDIDDQDGLRFHFPVIISYKNNPSMKGNDAVMVIREALSRALVYYYPLAGRLREGPNRKLMVECNGEGVLFIEANADVTLEQLGDRILPPCPVLEEFLSNPPGSDGILGCPLLLVQVTRLTCGGFIFGLRINHAMCDAVGLAKFLNAIGEMAQGADSLSVPPVWARELLNARDPPTVTRWHYEYDQLLDSQGSFIAAIDQSNMAQRSFYFGPQQIRALRKHLPPHLSTCSSFELITACVWRCRTLSLRLNPKDTVRISCAVNARGKSINDLCLPSGFYGNAFSIPTAVSTVELLCASPLGYGVELVVKSKAQMDKEYMQSLADFFVIRGRPPLPMGWNVFIVSDNRHTGFGEFDVGWGRPLFAGLARAFSMISFYVRDNNQEEEFGTLVPICLPSTSLERFEEELKKMTLEHVEEISK | 8.8556 (±1.4954) mM | 0.322 ± 0.0547 | 36.3 ± 5.1
13 | PpAAT1 (Prunus persica; F382Y) (protein, codon-optimised, C-terminal polyhistidine tag, pET-30a(+), expressed in E. coli, purified; HxxxD motif HAMCD at H165-D169) MGSLCPLLFPVNRFEPELITPAKPTPIETKQLSDIDDQDGLRFHFPVIISYKNNPSMKGNDAVMVIREALSRALVYYYPLAGRLREGPNRKLMVECNGEGVLFIEANADVTLEQLGDRILPPCPVLEEFLSNPPGSDGILGCPLLLVQVTRLTCGGFIFGLRINHAMCDAVGLAKFLNAIGEMAQGADSLSVPPVWARELLNARDPPTVTRWHYEYDQLLDSQGSFIAAIDQSNMAQRSFYFGPQQIRALRKHLPPHLSTCSSFELITACVWRCRTLSLRLNPKDTVRISCAVNARGKSINDLCLPSGFYGNAFSIPTAVSTVELLCASPLGYGVELVRKSKAQMDKEYMQSLADFFVIRGRPPLPMGWNVFIVSDNRHTGYGEFDVGWGRPLFAGLARAFSMISFYVRDNNQEEEFGTLVPICLPSTSLERFEEELKKMTLEHVEEISK | 9.0224 (±0.7366) mM | 0.373 ± 0.0138 | 41.3 ± 2.7
